{
  "source": "patent US20180100158A1",
  "biological_target": "HLA-E expressed on the surface of HeLa cells (human (endogenous on HeLa cells)) (UniProt P13747)",
  "sequence (P13747 22-358)": "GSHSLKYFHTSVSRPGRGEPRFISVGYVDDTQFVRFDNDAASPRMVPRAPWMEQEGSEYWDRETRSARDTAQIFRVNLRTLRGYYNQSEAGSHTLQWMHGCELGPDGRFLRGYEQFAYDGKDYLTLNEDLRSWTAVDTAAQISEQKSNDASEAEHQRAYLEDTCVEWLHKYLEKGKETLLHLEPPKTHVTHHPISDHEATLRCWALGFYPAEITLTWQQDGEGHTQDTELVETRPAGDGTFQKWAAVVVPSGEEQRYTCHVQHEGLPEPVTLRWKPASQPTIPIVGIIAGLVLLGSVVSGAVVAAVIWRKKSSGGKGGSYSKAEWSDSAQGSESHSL",
  "experiment": "cell-based or functional assay",
  "data": [
    {"substance": "NKG2A receptor on the surface of NK-92 cells (from UniProt P26715 1-233)", "values": [
      {"measurement": "percentage of lysis of the target HeLa cells (Calcein release), NKG2A-KO against wild-type NK-92 effector cells (% more target HeLa cells killed)", "result": "10 to 15"}
    ]}
  ]
}
